{"source": "paper PMC12731782", "target": "N-terminally GFP-tagged mouse ClC-3c (mouse)", "sequence (P51791 whole entry)": "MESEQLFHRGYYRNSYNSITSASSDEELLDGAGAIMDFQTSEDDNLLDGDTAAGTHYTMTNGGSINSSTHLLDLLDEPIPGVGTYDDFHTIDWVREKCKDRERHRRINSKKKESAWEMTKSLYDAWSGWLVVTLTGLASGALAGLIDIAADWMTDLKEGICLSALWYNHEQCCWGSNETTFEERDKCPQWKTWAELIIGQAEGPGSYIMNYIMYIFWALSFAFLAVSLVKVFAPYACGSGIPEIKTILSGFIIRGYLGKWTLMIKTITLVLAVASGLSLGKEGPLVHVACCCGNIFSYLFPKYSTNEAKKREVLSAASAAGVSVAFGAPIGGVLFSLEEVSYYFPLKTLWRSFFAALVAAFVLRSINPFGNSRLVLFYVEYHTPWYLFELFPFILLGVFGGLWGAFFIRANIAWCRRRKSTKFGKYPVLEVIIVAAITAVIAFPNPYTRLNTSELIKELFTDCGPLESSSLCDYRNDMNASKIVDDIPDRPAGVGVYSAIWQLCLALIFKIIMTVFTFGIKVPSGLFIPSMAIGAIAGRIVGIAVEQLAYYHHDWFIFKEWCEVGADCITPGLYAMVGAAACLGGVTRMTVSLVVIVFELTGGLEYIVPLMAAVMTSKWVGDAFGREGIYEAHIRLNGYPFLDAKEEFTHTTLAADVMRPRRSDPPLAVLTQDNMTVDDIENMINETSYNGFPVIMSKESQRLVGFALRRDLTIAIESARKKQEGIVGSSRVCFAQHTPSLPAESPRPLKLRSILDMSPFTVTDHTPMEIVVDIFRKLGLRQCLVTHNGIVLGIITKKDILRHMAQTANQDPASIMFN", "assay": "FRET or BRET; FLIM-FRET (phasor analysis of the donor lifetime) in living SH-SY5Y cells transfected with the IRES construct; GFP on ClC-3 as donor, mCherry on ClC-4 as acceptor; regions of interest at the plasma membrane or intracellular areas of intermediate fluorescence; tauD from cells expressing only the donor", "data": [{"substance": "N-terminally mCherry-tagged human ClC-4 (from UniProt P51793 1-760) (natural protein)", "values": [{"measurement": "donor fluorescence lifetime in the presence of the acceptor (τDA; unquenched donor τD = 2.22ns)", "value": 1.89, "unit": "ns"}]}]}
